Measurements reported in patent US20150361164A1 (EVEC, published 2015).

T1: bovine thymus-derived HMGB1 (bovine, UniProt P10103 2-215)
T1 construct: Bought protein from tissue
T1 sequence (looked up): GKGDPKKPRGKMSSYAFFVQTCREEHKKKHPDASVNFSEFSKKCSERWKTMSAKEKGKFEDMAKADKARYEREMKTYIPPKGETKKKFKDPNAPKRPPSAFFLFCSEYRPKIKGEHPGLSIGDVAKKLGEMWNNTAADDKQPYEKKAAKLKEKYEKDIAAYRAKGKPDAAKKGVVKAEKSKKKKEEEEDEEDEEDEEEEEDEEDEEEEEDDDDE


Molecular target: T1, bovine thymus-derived HMGB1
Assay: ELISA on HMGB1-immobilized immunoplate, antibodies adjusted to an equal concentration; OD as % of EV007156 (L) + #10-22 chimera (H) (source of the HMGB1 not named for this figure)

| Binder | binding result |
| --- | --- |
| #10-22 chimeric antibody (H chain) site substitution variant A94R (antibody, human IgG1, lambda, V domains shown, Variant H chain co-expressed with EV007156L in CHO-K1 cells) VH: AVQLVESGGGLVQPKESLKISCAASGFTFSNAAMYWVRQAPGKGLEWVARIRTKPNNYATYYADSVKGRFTISRDDSKSMVYLQMDNLKTEDTAMYYCTRPRRTEGIVSSGVDYWGQGVMVTVSS VL: YELTQPPSVSVSPGQTASITCSGDELPKRYAYWYQQKPGQSIVRVIYKDSERPSGIPERFSGSSSGTTATLTISGTQAEDEADYYCHSTYSDDKLPVFGGGTKLTVLG | binds |
| S76N (antibody, human IgG1, lambda, V domains shown, co-expressed with EV007156L in CHO-K1 cells; also called #10-22 chimeric antibody (H chain) site substitution variant S76N; copies: 2 + 2) VH: AVQLVESGGGLVQPKESLKISCAASGFTFSNAAMYWVRQAPGKGLEWVARIRTKPNNYATYYADSVKGRFTISRDDSKNMVYLQMDNLKTEDTAMYYCTAPRRTEGIVSSGVDYWGQGVMVTVSS VL: YELTQPPSVSVSPGQTASITCSGDELPKRYAYWYQQKPGQSIVRVIYKDSERPSGIPERFSGSSSGTTATLTISGTQAEDEADYYCHSTYSDDKLPVFGGGTKLTVLG | binds |
| I20L (antibody, human IgG1, lambda, co-expressed with EV007156L in CHO-K1 cells; also called #10-22 chimeric antibody (H chain) site substitution variant I20L; copies: 2 + 2) heavy: not shown light: YELTQPPSVSVSPGQTASITCSGDELPKRYAYWYQQKPGQSIVRVIYKDSERPSGIPERFSGSSSGTTATLTISGTQAEDEADYYCHSTYSDDKLPVFGGGTKLTVLGQPKAAPSVTLFPPSSEELQANKATLVCLISDFYPGAVTVAWKADSSPVKAGVETTTPSKQSNNKYAASSYLSLTPEQWKSHRSYSCQVTHEGSTVEKTVAPTECS | binds |
| N82bS (antibody, human IgG1, lambda, V domains shown, co-expressed with EV007156L in CHO-K1 cells; also called #10-22 chimeric antibody (H chain) site substitution variant N82bS; copies: 2 + 2) VH: AVQLVESGGGLVQPKESLKISCAASGFTFSNAAMYWVRQAPGKGLEWVARIRTKPNNYATYYADSVKGRFTISRDDSKSMVYLQMDSLKTEDTAMYYCTAPRRTEGIVSSGVDYWGQGVMVTVSS VL: YELTQPPSVSVSPGQTASITCSGDELPKRYAYWYQQKPGQSIVRVIYKDSERPSGIPERFSGSSSGTTATLTISGTQAEDEADYYCHSTYSDDKLPVFGGGTKLTVLG | binds |
| K15G (antibody, human IgG1, lambda, co-expressed with EV007156L in CHO-K1 cells; also called #10-22 chimeric antibody (H chain) site substitution variant K15G; copies: 2 + 2) heavy: not shown light: YELTQPPSVSVSPGQTASITCSGDELPKRYAYWYQQKPGQSIVRVIYKDSERPSGIPERFSGSSSGTTATLTISGTQAEDEADYYCHSTYSDDKLPVFGGGTKLTVLGQPKAAPSVTLFPPSSEELQANKATLVCLISDFYPGAVTVAWKADSSPVKAGVETTTPSKQSNNKYAASSYLSLTPEQWKSHRSYSCQVTHEGSTVEKTVAPTECS | binds |
| D82aN (antibody, human IgG1, lambda, V domains shown, co-expressed with EV007156L in CHO-K1 cells; also called #10-22 chimeric antibody (H chain) site substitution variant D82aN; copies: 2 + 2) VH: AVQLVESGGGLVQPKESLKISCAASGFTFSNAAMYWVRQAPGKGLEWVARIRTKPNNYATYYADSVKGRFTISRDDSKSMVYLQMNNLKTEDTAMYYCTAPRRTEGIVSSGVDYWGQGVMVTVSS VL: YELTQPPSVSVSPGQTASITCSGDELPKRYAYWYQQKPGQSIVRVIYKDSERPSGIPERFSGSSSGTTATLTISGTQAEDEADYYCHSTYSDDKLPVFGGGTKLTVLG | binds |
| P41S (antibody, human IgG1, lambda, V domains shown, co-expressed with EV007156L in CHO-K1 cells; also called #10-22 chimeric antibody (H chain) site substitution variant P41S; copies: 2 + 2) VH: AVQLVESGGGLVQPKESLKISCAASGFTFSNAAMYWVRQASGKGLEWVARIRTKPNNYATYYADSVKGRFTISRDDSKSMVYLQMDNLKTEDTAMYYCTAPRRTEGIVSSGVDYWGQGVMVTVSS VL: YELTQPPSVSVSPGQTASITCSGDELPKRYAYWYQQKPGQSIVRVIYKDSERPSGIPERFSGSSSGTTATLTISGTQAEDEADYYCHSTYSDDKLPVFGGGTKLTVLG | binds |
| A1E (antibody, human IgG1, lambda, co-expressed with EV007156L in CHO-K1 cells; also called #10-22 chimeric antibody (H chain) site substitution variant A1E; copies: 2 + 2) heavy: not shown light: YELTQPPSVSVSPGQTASITCSGDELPKRYAYWYQQKPGQSIVRVIYKDSERPSGIPERFSGSSSGTTATLTISGTQAEDEADYYCHSTYSDDKLPVFGGGTKLTVLGQPKAAPSVTLFPPSSEELQANKATLVCLISDFYPGAVTVAWKADSSPVKAGVETTTPSKQSNNKYAASSYLSLTPEQWKSHRSYSCQVTHEGSTVEKTVAPTECS | binds |
| V78A (antibody, human IgG1, lambda, V domains shown, co-expressed with EV007156L in CHO-K1 cells; also called #10-22 chimeric antibody (H chain) site substitution variant V78A; copies: 2 + 2) VH: AVQLVESGGGLVQPKESLKISCAASGFTFSNAAMYWVRQAPGKGLEWVARIRTKPNNYATYYADSVKGRFTISRDDSKSMAYLQMDNLKTEDTAMYYCTAPRRTEGIVSSGVDYWGQGVMVTVSS VL: YELTQPPSVSVSPGQTASITCSGDELPKRYAYWYQQKPGQSIVRVIYKDSERPSGIPERFSGSSSGTTATLTISGTQAEDEADYYCHSTYSDDKLPVFGGGTKLTVLG | binds |
| M89V (antibody, human IgG1, lambda, V domains shown, co-expressed with EV007156L in CHO-K1 cells; also called #10-22 chimeric antibody (H chain) site substitution variant M89V; copies: 2 + 2) VH: AVQLVESGGGLVQPKESLKISCAASGFTFSNAAMYWVRQAPGKGLEWVARIRTKPNNYATYYADSVKGRFTISRDDSKSMVYLQMDNLKTEDTAVYYCTAPRRTEGIVSSGVDYWGQGVMVTVSS VL: YELTQPPSVSVSPGQTASITCSGDELPKRYAYWYQQKPGQSIVRVIYKDSERPSGIPERFSGSSSGTTATLTISGTQAEDEADYYCHSTYSDDKLPVFGGGTKLTVLG | binds |
| M77T (antibody, human IgG1, lambda, V domains shown, co-expressed with EV007156L in CHO-K1 cells; also called #10-22 chimeric antibody (H chain) site substitution variant M77T; copies: 2 + 2) VH: AVQLVESGGGLVQPKESLKISCAASGFTFSNAAMYWVRQAPGKGLEWVARIRTKPNNYATYYADSVKGRFTISRDDSKSTVYLQMDNLKTEDTAMYYCTAPRRTEGIVSSGVDYWGQGVMVTVSS VL: YELTQPPSVSVSPGQTASITCSGDELPKRYAYWYQQKPGQSIVRVIYKDSERPSGIPERFSGSSSGTTATLTISGTQAEDEADYYCHSTYSDDKLPVFGGGTKLTVLG | binds |
| E16G (antibody, human IgG1, lambda, co-expressed with EV007156L in CHO-K1 cells; also called #10-22 chimeric antibody (H chain) site substitution variant E16G; copies: 2 + 2) heavy: not shown light: YELTQPPSVSVSPGQTASITCSGDELPKRYAYWYQQKPGQSIVRVIYKDSERPSGIPERFSGSSSGTTATLTISGTQAEDEADYYCHSTYSDDKLPVFGGGTKLTVLGQPKAAPSVTLFPPSSEELQANKATLVCLISDFYPGAVTVAWKADSSPVKAGVETTTPSKQSNNKYAASSYLSLTPEQWKSHRSYSCQVTHEGSTVEKTVAPTECS | binds |
| M108L (antibody, human IgG1, lambda, co-expressed with EV007156L in CHO-K1 cells; also called #10-22 chimeric antibody (H chain) site substitution variant M108L; copies: 2 + 2) heavy: not shown light: YELTQPPSVSVSPGQTASITCSGDELPKRYAYWYQQKPGQSIVRVIYKDSERPSGIPERFSGSSSGTTATLTISGTQAEDEADYYCHSTYSDDKLPVFGGGTKLTVLGQPKAAPSVTLFPPSSEELQANKATLVCLISDFYPGAVTVAWKADSSPVKAGVETTTPSKQSNNKYAASSYLSLTPEQWKSHRSYSCQVTHEGSTVEKTVAPTECS | binds |
| V107T (antibody, human IgG1, lambda, co-expressed with EV007156L in CHO-K1 cells; also called #10-22 chimeric antibody (H chain) site substitution variant V107T; copies: 2 + 2) heavy: not shown light: YELTQPPSVSVSPGQTASITCSGDELPKRYAYWYQQKPGQSIVRVIYKDSERPSGIPERFSGSSSGTTATLTISGTQAEDEADYYCHSTYSDDKLPVFGGGTKLTVLGQPKAAPSVTLFPPSSEELQANKATLVCLISDFYPGAVTVAWKADSSPVKAGVETTTPSKQSNNKYAASSYLSLTPEQWKSHRSYSCQVTHEGSTVEKTVAPTECS | binds |

Molecular target: T1, bovine thymus-derived HMGB1
Assay: ELISA on HMGB1-immobilized immunoplate, antibodies adjusted to an equal concentration; OD as % of #10-22 chimera (source of the HMGB1 not named for this figure)

| Binder | binding result |
| --- | --- |
| R76S (antibody, human IgG1, lambda, V domains shown, co-expressed with the #10-22 chimeric antibody H chain in CHO-K1 cells; also called #10-22 chimeric antibody (L chain) site substitution variant R76S) VH: AVQLVESGGGLVQPKESLKISCAASGFTFSNAAMYWVRQAPGKGLEWVARIRTKPNNYATYYADSVKGRFTISRDDSKSMVYLQMDNLKTEDTAMYYCTAPRRTEGIVSSGVDYWGQGVMVTVSS VL: YELIQPPSASVTLGNTVSITCSGDELPKRYAYWYQQKPDKSIVRVIYKDSERPSGISDRFSGSSSGTTATLTISDTQAEDEADYYCHSTYSDDKLPVFGGGTKLTVLG | binds |
| D60E (antibody, human IgG1, lambda, V domains shown, co-expressed with the #10-22 chimeric antibody H chain in CHO-K1 cells; also called #10-22 chimeric antibody (L chain) site substitution variant D60E) VH: AVQLVESGGGLVQPKESLKISCAASGFTFSNAAMYWVRQAPGKGLEWVARIRTKPNNYATYYADSVKGRFTISRDDSKSMVYLQMDNLKTEDTAMYYCTAPRRTEGIVSSGVDYWGQGVMVTVSS VL: YELIQPPSASVTLGNTVSITCSGDELPKRYAYWYQQKPDKSIVRVIYKDSERPSGISERFSGSSSGTTATLTIRDTQAEDEADYYCHSTYSDDKLPVFGGGTKLTVLG | binds |
| D77G (antibody, human IgG1, lambda, V domains shown, co-expressed with the #10-22 chimeric antibody H chain in CHO-K1 cells; also called #10-22 chimeric antibody (L chain) site substitution variant D77G) VH: AVQLVESGGGLVQPKESLKISCAASGFTFSNAAMYWVRQAPGKGLEWVARIRTKPNNYATYYADSVKGRFTISRDDSKSMVYLQMDNLKTEDTAMYYCTAPRRTEGIVSSGVDYWGQGVMVTVSS VL: YELIQPPSASVTLGNTVSITCSGDELPKRYAYWYQQKPDKSIVRVIYKDSERPSGISDRFSGSSSGTTATLTIRGTQAEDEADYYCHSTYSDDKLPVFGGGTKLTVLG | binds |
| S59P (antibody, human IgG1, lambda, V domains shown, co-expressed with the #10-22 chimeric antibody H chain in CHO-K1 cells; also called #10-22 chimeric antibody (L chain) site substitution variant S59P) VH: AVQLVESGGGLVQPKESLKISCAASGFTFSNAAMYWVRQAPGKGLEWVARIRTKPNNYATYYADSVKGRFTISRDDSKSMVYLQMDNLKTEDTAMYYCTAPRRTEGIVSSGVDYWGQGVMVTVSS VL: YELIQPPSASVTLGNTVSITCSGDELPKRYAYWYQQKPDKSIVRVIYKDSERPSGIPDRFSGSSSGTTATLTIRDTQAEDEADYYCHSTYSDDKLPVFGGGTKLTVLG | binds |
| D41G (antibody, human IgG1, lambda, V domains shown, co-expressed with the #10-22 chimeric antibody H chain in CHO-K1 cells; also called #10-22 chimeric antibody (L chain) site substitution variant D41G) VH: AVQLVESGGGLVQPKESLKISCAASGFTFSNAAMYWVRQAPGKGLEWVARIRTKPNNYATYYADSVKGRFTISRDDSKSMVYLQMDNLKTEDTAMYYCTAPRRTEGIVSSGVDYWGQGVMVTVSS VL: YELIQPPSASVTLGNTVSITCSGDELPKRYAYWYQQKPGKSIVRVIYKDSERPSGISDRFSGSSSGTTATLTIRDTQAEDEADYYCHSTYSDDKLPVFGGGTKLTVLG | binds |
| K42Q (antibody, human IgG1, lambda, V domains shown, co-expressed with the #10-22 chimeric antibody H chain in CHO-K1 cells; also called #10-22 chimeric antibody (L chain) site substitution variant K42Q) VH: AVQLVESGGGLVQPKESLKISCAASGFTFSNAAMYWVRQAPGKGLEWVARIRTKPNNYATYYADSVKGRFTISRDDSKSMVYLQMDNLKTEDTAMYYCTAPRRTEGIVSSGVDYWGQGVMVTVSS VL: YELIQPPSASVTLGNTVSITCSGDELPKRYAYWYQQKPDQSIVRVIYKDSERPSGISDRFSGSSSGTTATLTIRDTQAEDEADYYCHSTYSDDKLPVFGGGTKLTVLG | binds |
